Experimental findings from article doi:10.1101/2020.07.16.20155853 are described below.

In general, stoichiometry N refers to the number of molecules, sites or subunits per partner or assembly.

The test addresses SARS-CoV-2 Cys-like protease (Mpro) (SARS-CoV-2 (Wuhan-Hu-1 strain)). Briefly: SEC. In general terms: SEC sorts molecules by how far they enter the pores of the column.

In turn, “SARS-CoV-2 Cys-like protease (Mpro) (enzyme)” had a stoichiometry N of 2.
